# Assay results reported in patent US20220211858A1, “TUBULAR SUPRAMOLECULAR POLYMERS” (priority 2019, published 2022).
# Entries after “also recorded” stand apart in the source; their conditions may differ.
# Assays:
# [1] = Drug release from TT 1 nanotubes with or without GSH; format: physicochemical; conditions: 200 μM
# Protocol: The release of free CPT from TT 1 nanotubes was evaluated in the presence or absence of GSH. Stock solutions of 400 μM of TT 1 in deionized water were prepared and diluted to 200 μM with 20 mM PBS buffer with or without GSH (20 mM). Three replicate experiments were prepared together for both conditions. The solutions were incubated at 37° C. and samples were collected at 0 min, 10 min, 20 min, 30 min, 1 h, 2 h, 4 h, 6 h, 8 h, 12 h and 24 h. For each collected sample, the reductive release was halted by acidification of the solution through the addition of 0.2 μL of 2M HCl. Samples were then frozen with liquid nitrogen and stored at −30° C. until analysis. The amount of released CPT was monitored by RP-HPLC using the following conditions: Varian Pursuit XRs C18 (5 μm, 150×4.6 mm); 362 nm detection wavelength; 1 ml/min flow rate; the gradient began at 90% of mobile phase A (0.1% aqueous TFA) and 10% of mobile phase B (acetonitrile containing 0.1% TFA) increasing to 90% mobile phase B by 15 min and held for another 1 min before decreasing to the initial solvent composition at 20 minutes. Selected time points were characterized and data were plotted as a percentage of the total expected CPT concentration.
# [2] = Physical stability of TT 1 nanotubes upon dilution in cell medium (CD); format: physicochemical
# Protocol: The stability of non-ionic TT 1 nanotubes upon dilution in cell medium was evaluated by recording the CD spectrum for a series of prepared dilutions. […] A stock solution of TT 1 nanotube was prepared at a concentration of 1 mM in water and aged overnight. The aged solution was then diluted to 200 μM with cell medium. Further dilutions of the 200 μM TT 1 nanotube in cell medium were prepared at 100 μM, 50 μM, 25 μM, 10 μM, and 5 μM concentration. All diluted solutions were incubated for an additional two days before CD measurements were made. All the CD spectra were recorded from 300 to 440 nm using a 1 mm (for 200 μM, 100 μM, and 50 μM) or 10 mm (for 25 μM, 10 μM, and 5 μM) path length quartz cell. The spectra were collected and normalized from ellipticity (mdeg) to molar ellipticity (deg·cm^2·dmol^−1).
# [3] = test system: human glioblastoma U87 MG cells; assay: Antitumor efficacy study for systemic delivery, subcutaneous U87 MG tumor; format: in vivo, athymic nude mice; conditions: for mean tumor volume: three weeks after treatment
# Protocol: A total of 2×10^6 human glioblastoma U87 MG cells were subcutaneously injected into the right shoulder of athymic nude mice (8-9 weeks old). The mice were used for the efficacy study after three to four weeks when the tumor had reached about 190-250 mm^3 in size. […]. Water insoluble free CPT was dissolved/suspended in a mixture of DMSO/ethanol/PEG-400/water (1:1:2:1). CPT (4.5 mg/kg) and irinotecan (60 mg/kg) were administered by intraperitoneal injection, while freshly prepared TT 1 solutions of various doses were administered intravenously by tail vein injection every 4 days for a total of three doses (days 1, 5, and 9). […]. Tumor volumes were measured and recorded every other day. The body weights were measured and recorded every day or every other day. The tumor volume was determined by measuring the tumor in two dimensions with calipers and using the formula “tumor volume=(length×width^2)/2”. Each animal was euthanized once the tumor volume reached the predetermined end point size of 2000 mm^3.
# [4] = Biodistribution study in U87 MG tumor-bearing mice; format: in vivo, nude mice
# Protocol: Mice bearing subcutaneous tumors were established by injecting 100 μL of a U87 MG suspension in serum-free medium (2×10^6 cells) into the right flank of the mice. When the tumor reached a size of −200 mm^3, the mice were randomly grouped and received one of the following 3 treatments via intravenous injection (n=18 for each group): free CPT (4.5 mg/kg), TT 1 (4.5 mg/kg), and TT 1 (15 mg/kg). Three mice from each group were euthanized at pre-determined time points (1, 2, 4, 8, 12, and 24 h). Plasma, major organs, and tumors were collected and stored at −80° C. for further analysis. To determine the amount of free CPT and TT 1 in the samples, 100 mg tumors were mixed with 900 μL acetonitrile (containing 0.1% TFA) and then homogenized using Precellys Evolution Super Homogenizer (Bertin Technologies, France) for 3×40 s (5,600 shakes/min). The resulting suspensions were centrifuged and the supernatants were collected. For plasma, 50 μL of sample was mixed with 450 μL acetonitrile (containing 0.1% TFA) and sonicated for 1 min. The supernatants were collected using centrifugation. All samples were filtered through a 0.22 μm membrane before analysis by a UPLC system (Waters ACQuity™ Ultra Performance LC) equipped with a reverse-phase column (ACQuity UPLC@BEH, C18, 1.7 μm 2.1×150 mm) and a fluorescence detector (ACQuity FLR, Ex/Em=362/430 nm). The column was flushed with a mixture of water (0.1% TFA) and acetonitrile (0.1% TFA) at 0.3 mL/min with the following gradient: 5% acetonitrile (0-1 min), 5-95% acetonitrile (1-5 min), 95% acetonitrile (5-8 min), 95-5% acetonitrile (8-9 min), and 5% acetonitrile (9-10 min). Peaks with retention times of 5.4 min (free CPT) and 6.9 min (TT 1) were monitored.
# [5] = test system: U87 MG human brain cancer cells; conditions: 48 h incubation, SRB, CPT concentration
# Protocol: The human brain cancer cell line U87 MG was a generous gift from Dr. Wirtz (ChemBE, JHU). DMEM (Invitrogen) containing 10% fetal bovine serum (FBS, Invitrogen) and 1% antibiotics (Invitrogen) was used for the culture of the U87 MG cells. Cancer cells were incubated at 37° C. in a humidified incubator (Oasis, Caron, Marietta, Ohio, USA) with an atmosphere of 5% CO2. […] U87 MG cells were seeded onto 96-well plates (5000 cells/well) and allowed to attach overnight. […] The stock solutions were then diluted with fresh medium to achieve final CPT concentrations of 0.1, 1, 10, 100, 500, 1000, 5000 and 10000 nM. After dilution, the nanotube-containing media were used to incubate cells immediately. Medium containing the same concentration of free CPT ranging from 0.1 to 10000 nM was also used to incubate the cells, with non-treated cells (solvent only) as the control group. In addition, irinotecan at the concentration of 0.1, 1, 5, 10, 50, 100 and 500 μM was employed as a second control. After 48 h incubation, the cell viability was evaluated using the SRB method according to the manufacturer's protocols (TOX-6, Sigma, St. Louis, Mo.).
smiles,measurement,setting,value
CC[C@]1(OC(=O)OCCSSC[C@@H](NC(C)=O)C(=O)N[C@@H](CCCCNC(=O)[C@@H](CSSCCOC(=O)O[C@]2(CC)C(=O)OCc3c2cc2n(c3=O)Cc3cc4ccccc4nc3-2)NC(C)=O)C(=O)N[C@@H](CCCCNC(=O)CCOCCOCCOCCOCCOC)C(=O)N[C@@H](CCCCNC(=O)CCOCCOCCOCCOCCOC)C(N)=O)C(=O)OCc2c1cc1n(c2=O)Cc2cc3ccccc3nc2-1 [TT 1],conjugated CPT released,"[1]; 10 mM GSH, 37° C., by 6 h",~100%
same,conjugates degraded (hydrolysis),"[1]; without GSH, 24 h",less than 10%
same,appearance of solution in cell medium,[2]; after one week,remained clear after one week; also recorded: remains clear after a week
same,change of CD signal upon dilution,"[2]; cell medium with 10% FBS, 10 and 5 μM",slight decreases in intensity; also recorded: slight decrease of CD signal at 389 nm
same,dissociation of nanotubes upon dilution (CD),"[2]; cell medium with 10% FBS, concentrations above 25 μM, two days",no obvious disassociation; also recorded: minimum dissociation or aggregation
same,median survival,"[3]; TT 1 4.5 mg/kg (CPT equivalent) i.v. days 1, 5, 9",23 days
same,tumor volume,"[3]; TT 1 4.5 mg/kg, up to 15 days",417 mm^3
same,survival of four out of five mice,[3]; TT 1 9 mg/kg,up to 37 d
same,median survival,"[3]; TT 1 9 mg/kg i.v. days 1, 5, 9",37 days
same,mean tumor volume,[3]; TT 1 9 mg/kg,94 mm^3
same,survival of four out of five mice,[3]; TT 1 15 mg/kg,≤ 43 days
same,median survival,"[3]; TT 1 15 mg/kg i.v. days 1, 5, 9",43 days
same,mean tumor volume,[3]; TT 1 15 mg/kg,59 mm^3
same,increase of plasma concentration versus free CPT,"[4]; 4.5 mg/kg i.v., 1 hour",approximately 129 fold
same,increase of tumor concentration versus free CPT,"[4]; 4.5 mg/kg i.v., 1 hour",8 fold
same,TT 1 converted to free CPT in the tumor,"[4]; 4.5 mg/kg, 1 hour after injection",47%
same,TT 1 converted to free CPT in the tumor,"[4]; 4.5 mg/kg, 8 hours",82%
same,TT 1 converted to free CPT in the tumor,"[4]; 15 mg/kg, 1 hour after injection",58%
same,TT 1 converted to free CPT in the tumor,"[4]; 15 mg/kg, 8 hours",96%
same,retention in the blood,[4]; i.v.,up to 12 hours
same,IC50,[5],149 nM
